The source of these data is US6989256 (UNIVERSITY OF MEDICINE AND DENTISTRY OF NEW JERSEY, dated 2006).

The target in this assay is T1, FLAG epitope-tagged Mtt1p (yeast (S. cerevisiae), UniProt P32644 1-1121, limits assumed).
T1 construct: Used as a yeast cytoplasmic extract, not as purified protein; also called Flag-Mtt1p; Modulator of Translation Termination
T1 sequence (looked up): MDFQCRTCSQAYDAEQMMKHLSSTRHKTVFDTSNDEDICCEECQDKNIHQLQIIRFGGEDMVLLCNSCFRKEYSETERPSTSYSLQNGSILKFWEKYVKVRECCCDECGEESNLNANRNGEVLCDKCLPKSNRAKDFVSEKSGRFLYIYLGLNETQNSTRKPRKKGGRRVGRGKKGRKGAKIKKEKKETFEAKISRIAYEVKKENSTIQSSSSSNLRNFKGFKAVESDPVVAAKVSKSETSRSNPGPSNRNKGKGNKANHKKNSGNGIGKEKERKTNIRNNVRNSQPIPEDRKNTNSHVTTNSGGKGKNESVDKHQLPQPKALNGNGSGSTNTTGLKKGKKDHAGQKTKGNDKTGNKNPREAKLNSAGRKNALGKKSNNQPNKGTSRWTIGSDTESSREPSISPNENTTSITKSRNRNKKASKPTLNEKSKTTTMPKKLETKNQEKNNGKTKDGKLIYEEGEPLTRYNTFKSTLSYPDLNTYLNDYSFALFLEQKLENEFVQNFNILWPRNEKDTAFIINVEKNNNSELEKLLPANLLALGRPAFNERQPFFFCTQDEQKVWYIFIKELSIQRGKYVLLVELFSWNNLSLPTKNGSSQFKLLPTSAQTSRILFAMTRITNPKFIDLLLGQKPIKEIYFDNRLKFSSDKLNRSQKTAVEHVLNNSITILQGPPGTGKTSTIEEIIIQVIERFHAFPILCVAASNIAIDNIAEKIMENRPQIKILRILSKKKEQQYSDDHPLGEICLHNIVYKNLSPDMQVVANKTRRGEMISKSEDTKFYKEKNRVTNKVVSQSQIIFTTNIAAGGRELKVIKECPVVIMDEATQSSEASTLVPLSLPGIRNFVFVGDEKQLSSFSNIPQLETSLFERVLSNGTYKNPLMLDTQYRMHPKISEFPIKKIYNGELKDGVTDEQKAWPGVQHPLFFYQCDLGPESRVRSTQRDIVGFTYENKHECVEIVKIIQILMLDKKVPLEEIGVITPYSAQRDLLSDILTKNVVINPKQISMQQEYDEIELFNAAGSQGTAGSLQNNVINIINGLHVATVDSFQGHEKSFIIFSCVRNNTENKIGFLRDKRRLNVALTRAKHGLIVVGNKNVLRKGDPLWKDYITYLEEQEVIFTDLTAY
The assay is described as follows: GST pull-down from yeast cytoplasmic extract, anti-FLAG immunoblot. The method, then: Total RNA was prepared and subjected to RNA blotting analysis, using a probe for CYH2 mRNA. Figure 4: FIG. 4 Mtt1 interacts withe eRF3. Cytoplasmic extracts from a yeast strain BJ3505 transformed with either pG-1 (vector) or pG-1 FLAGMTT1 (Flag-Mtt1p) were prepared in IBTB and incubated with 30 μl GST, GST-eRF1. GST-eRF3, GST-eRF3NM or GST-eRF3C sepharose-protein complexes. The sepharose-protein complexes were washed 2 times in IBTB (see materials and methods), resuspended in SDS-PAGE loading buffer, separated on an 8% SDS-PAGE gel and immunoblotted using anti-FLAG antibody.
Since deleting the MTT1 gene also promotes nonsense suppression of the tyr7-1 and leu2-2 alleles, Mtt1p also interacts with the peptidyl release factors. To test this, eRF1 and eRF3 were individually expressed in *E. coli* as glutathione-S-transferase (GST) fusion proteins and purified using glutathione sepharose beads. The purified GST-RF (release factor) fusion proteins associated with the glutathione sepharose beads were added to a yeast cytoplasmic extract containing a FLAG epitope-tagged Mtt1p (see Experimental Procedures). Following incubation, the GST-RFs and associated proteins were purified by affinity chromatography and subjected to SDS-PAGE. Immunoblotting was performed and the presence of the Flag-Mtt1p was assayed using an antibody against the FLAG epitope.
(A western blot detects proteins with antibodies after separation by electrophoresis.)

B1: GST-eRF1 (other, yeast (S. cerevisiae), UniProt P12385 1-437, looked up)
chain: MDNEVEKNIEIWKVKKLVQSLEKARGNGTSMISLVIPPKGQIPLYQKMLTDEYGTASNIKSRVNRLSVLSAITSTQQKLKLYNTLPKNGLVLYCGDIITEDGKEKKVTFDIEPYKPINTSLYLCDNKFHTEVLSELLQADDKFGFIVMDGQGTLFGSVSGNTRTVLHKFTVDLPKKHGRGGQSALRFARLREEKRHNYVRKVAEVAVQNFITNDKVNVKGLILAGSADFKTDLAKSELFDPRLACKVISIVDVSYGGENGFNQAIELSAEALANVKYVQEKKLLEAYFDEISQDTGKFCYGIDDTLKALDLGAVEKLIVFENLETIRYTFKDAEDNEVIKFAEPEAKDKSFAIDKATGQEMDVVSEEPLIEWLAANYKNFGATLEFITDKSSEGAQFVTGFGGIGAMLRYKVNFEQLVDESEDEYYDEDEGSDYDFI
notes: also called GST-RF1; GST-RF; not shown: glutathione-S-transferase (GST) from vector pGEX2T
As for B1, the binding result is listed as “no binding”.
